Patent US20230270857A1

Molecular target: CD3 on ex vivo expanded human T cells (Homo sapiens) (UniProt P07766)
Test: flow cytometry referenced to quantum beads

Row | molar amount of BsAb bound per T cell (zeptomoles per T cell) | Substance
1 | 1 to 35 | GD2-BsAb (hu3F8-BsAb, anti-GD2 hu3F8 x anti-CD3 huOKT3, IgG-[L]-scFv format) (bispecific antibody)
2 | 1 to 35 | HER2-BsAb (trastuzumab x huOKT3, IgG-[L]-scFv format) (bispecific antibody)
